Experimental data published in the supplement of paper PMC12764529.
± gives the half width of the 95% confidence interval.

Key:
[1] = folding stability dG unfold from chymotrypsin proteolysis; higher = more stable
Description: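 Folding stability of de novo designed mini-proteins (<80 aa, no Cys; designed by TrROS, TrMRF, ProteinMPNN and the joint model) was measured by cDNA display proteolysis with trypsin and chymotrypsin. Each protease was used at 11 concentrations in a threefold dilution series plus a no-protease condition. K50 was inferred by Bayesian fitting of sequencing counts, and dG unfold was derived against a sequence-predicted unfolded-state K50 (Tsuboyama et al. method). Sequences shown include variable-length N-terminal GS-type padding (SAGGSAGG...) inside a display construct carrying a PA tag. Rows were kept only if the AF2 dimer inter-PAE was >15, to exclude likely homo-oligomers.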

[2] = folding stability dG unfold (combined trypsin and chymotrypsin); higher = more stable
Procedure, shortened: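 Unfolding free energy was derived, per protease or combined, against a sequence-predicted unfolded-state K50 and a shared folded-state K50, starting from K50 inferred by Bayesian fitting of sequencing counts. Digestion with trypsin and chymotrypsin was carried out on designed mini-proteins under 80 residues without cysteine in a PA-tagged cDNA display construct. Only designs with AlphaFold2 dimer inter-PAE above 15 were kept.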

Sequence | folding stability dG unfold [1] | folding stability dG unfold [2]
SAGGSAGGSAMKITINVSPDEPGVTIEEAKKRLAPHPVEKVTQTPLPSNSLVVTVDVSPEASAGGSAGGSAG [r3_335_JUSTAS] | -0.457 ± 0.2 kcal/mol | < -1 kcal/mol
SAGGSAGGSAMNVTTETRTDPVTGNTTTTTTYTDTGEVVTTTTTTPPETTTTTTTTTSLTKSAGGSAGGSAG [r3_126_JUSTAS] | 0.982 ± 0.07 kcal/mol | 0.524 ± 0.2 kcal/mol
SAGGSAGGSAMRAVVVAFPPDGPPRVFPTDDLAPDERRVTFDPETGELALIEVLPEDGDPASAGGSAGGSAG [r3_356_TrMRF] | 0.0788 ± 0.23 kcal/mol | < -1 kcal/mol
SAGGSAGGSAPLVLVAPGDAPVTVYPDPETGTYVAVFPDGSVLVAPVVGDVVPVVLLPPGLASAGGSAGGSA [r18_405_TrMRF] | 0.677 ± 0.19 kcal/mol | -0.31 ± 0.23 kcal/mol
SAGGSAGGSAPPIPIQIKIERPDPDGEKRERKIPVWIPPNNIDEIKDEAEEEGWRVKEVTISAGGSAGGSAG [r3_453_TrROS] | 0.29 ± 0.05 kcal/mol | -0.477 ± 0.18 kcal/mol
SAGGSAGGSARIDFPAIRRLLGSEAPAEDVVEAVEVIAKELAEELNLPDVEVDPRVVAPDELESAGGSAGGS [r12_666_TrMRF] | 0.638 ± 0.068 kcal/mol | 0.102 ± 0.22 kcal/mol
SAGGSAGGSASVGLLSVSTTPSGPGTTVTATTALPDGTVRTETRTEAGDGTATATTVTPLAASAGGSAGGSA [r18_79_JUSTAS] | 0.271 ± 0.069 kcal/mol | -0.295 ± 0.15 kcal/mol
SAGGSAGGSATLTVEVLEEVVEPVPDPSLTPVRLLVRDPANGELREAVVIRDPRRGALRLESAGGSAGGSAG [r3_1_JUSTAS] | 0.0495 ± 0.22 kcal/mol | -0.488 ± 0.22 kcal/mol
SAGGSAGGSEGFVLRVRRYRRRPDDRVRVPVSEAELEVLPELADAVARALREASPEVEVELRPSAGGSAGGS [r12_342_TrMRF] | 0.0982 ± 0.27 kcal/mol | < -1 kcal/mol
SAGGSAGGSELRVLDARPTPDGLVVNLVAPDRLLVTRVDTGADGSQSVSSVVLDAPESTEFDLSAGGSAGGS [r12_981_TrMRF] | -0.918 ± 0.36 kcal/mol | < -1 kcal/mol
SAGGSAGGSGGMMVTITLPPGVPPSVVRAALEPLGVRVEVRPVPPVVPFRYPEPGELVFSPLGSAGGSAGGS [r12_80_JUSTAS] | 0.373 ± 0.17 kcal/mol | < -1 kcal/mol
SAGGSAGGSGGMRVIRTKLEETEFFEETGESRTFEGLVIVEKEIYLPPYPRYPVFRFDEEKEASAGGSAGGS [r12_140_JUSTAS] | -0.379 ± 0.41 kcal/mol | -0.526 ± 0.42 kcal/mol
SAGGSAGGSGMVTVKRTVPPGNVEEAVNALTPPNLTITDVKVTELPDSVEVTVTVEDPFPGLVSAGGSAGGS [r12_445_JUSTAS] | 0.587 ± 0.034 kcal/mol | 0.0193 ± 0.12 kcal/mol
SAGGSAGGSGNPTPPAEPTVTLSTSDWNEVKERVEKAGLEYETFPGEGKVTLPASDFEKIKEESAGGSAGGS [r12_325_JUSTAS] | 0.356 ± 0.049 kcal/mol | -0.00313 ± 0.14 kcal/mol
SAGGSAGGSGSSVERSPSGEVVTTTPTAGGTLRTVHDPSGTRTLTDVASGKVLATYTPAVPVASAGGSAGGS [r12_235_JUSTAS] | -0.638 ± 0.31 kcal/mol | < -1 kcal/mol
SAGGSAGGSIPPGEEVPLRIKIWNPDNGKPRNEIPITMWVGDAEEIAEEFASTFPGYRVEIDPSAGGSAGGS [r12_21_TrROS] | 0.717 ± 0.23 kcal/mol | 0.102 ± 0.33 kcal/mol
SAGGSAGGSMIVVPLERELDPSEPGLTKEEVKAILEAKGLDVVDIKVSTDPAKGLTRAVAKVKSAGGSAGGS [r12_1052_JUSTAS] | -0.851 ± 0.35 kcal/mol | < -1 kcal/mol
SAGGSAGGSMLKVRIKIEIDGKTLEVEIEVPPGTTIEELAEALKKLFPGKEVKIVSVEVYELPSAGGSAGGS [r12_427_TrROS_Hall] | 4.23 ± 0.14 kcal/mol | 4.47 ± 0.25 kcal/mol
SAGGSAGGSMPVTVTVTTPDGTTQTLTADAPPAQTFTVTVTGPDGDPRPVRVTVHGTTVTVEGSAGGSAGGS [r12_784_TrMRF] | 0.227 ± 0.22 kcal/mol | < -1 kcal/mol
SAGGSAGGSMTETVEKTMPSNGATAEITKLPDGSIKVTIKGSNPVIETFPADEPLVIKPGLEGSAGGSAGGS [r12_1003_JUSTAS] | 0.621 ± 0.095 kcal/mol | 0.263 ± 0.18 kcal/mol
SAGGSAGGSMVVTERSVRPVPRLVRTSDPSTGSSSVHLDPGAVETVRVIEEPPTPELLANTGASAGGSAGGS [r20_172_JUSTAS] | -1.36 ± 0.33 kcal/mol | < -1 kcal/mol
